# Measurements as given in US8604172B2, “Humanized antibody compositions and methods for binding lysophosphatidic acid” (Lpath, Inc., priority 2009, dated 2013).
# Legend:
# [1] = Safety, 7 day intravenous injection; format: in vivo, C57BL/6N mice; settings: for triglycerides / liver weights: mean±SD; for triglycerides: in mg/dL (unit assumed); for liver weights: in g (unit assumed)
# Source text: Objective. This study assessed the safety of Lpathomab following intravenous injection of the antibody. C57BL/6N mice received Lpathomab (LT3000) for 7 consecutive days followed by a 7 day recovery period for selected animals of each treatment (recovery groups). Blood samples were collected and processed for multiple study parameters including classical hematology, coagulation time and clinical chemistry. Selected organs were weighed and compared with vehicle only controls.
# Study design. Once a day, single iv bolus injections of Lpathomab or vehicle control were given at the following doses: 0, 30, 60, 120, and 240 mg/kg. […] For each animal, necropsy consisted of an external examination, including identification of all clinically recorded lesions, as well as a detailed internal examination.
# [2] = Competition ELISA specificity, competitor DSPA; format: binding; settings: maximum inhibition, n = 3
# Protocol: (§1) The specificity of the anti-LPA mAbs was assessed for their binding to LPA related biolipids such as distearoyl-phosphatidic acid, lysophosphatidylcholine, S1P, ceramide and ceramide-1-phosphate.
# neovascularization = test: Classical angiogenesis models; format: in vivo; settings: two classical angiogenesis models
# [3] = tested on: IL-8 release in SKOV3 cells; test: LPA-induced IL-8 release in SKOV3 cells; format: cell-based, human
# Protocol: Anti-LPA antibodies inhibit the LPA-dependant release of human CXCL8/IL-8 in conditioned media of SKOV3 ovarian cells. SKOV3 cells (Lot No 4255558, passage 14) were harvested with 2 ml of 1× Trypsin EDTA (Mediatech Inc, Cat. No 25-053-CV) and resuspended in 8 ml of complete medium (10% FBS, Mediatech Inc. Cat. no 35-011-CV). The cells were centrifuged for 5 min ([…]) and re-suspended in 5 ml of complete medium. Cells were counted in duplicate with 0.4% Trypan blue (10 ul cells plus 90 ul Trypan blue, Invitrogen, Cat. No 15250-061) using a hemocytometer. In a 96-well plate, 1×10^5 cells per well were seeded (final volume 100 ul/well). The cells were allowed to attach and form a confluent monolayer by incubating overnight at 37° C. On the following day, cells were gently washed two times with minimum media (1 mg/ml BSA in McCoy's medium with L-glutamine, Mediatech, Cat. No 10-050-CV). The media was adjusted to 1% penicillin/streptomycin (Mediatech, Cat. No 30-002 CI) and 2.2 g/L sodium-bicarbonate (Mediatech, Cat. No 25-035-CI). Next, the cells were serum-starved at 37° C. for exactly 24 h, followed by cytokine stimulation with 1 uM C18:1 LPA (Avanti, Cat. No 857130) dissolved in 1 mg/ml BSA/PBS (Calbiochem, Cat. No 126575) which was pre-incubated in presence or absence of humanized LPA antibody LT3015 (150, 300 or 600 ug/mL) for one hour. Treatments were then added to the cells. After 22 h of cytokine stimulation, the cells were centrifuged for 5 min (13,500 rpm) at 4° C. and the supernatants (cell-conditioned media) were collected. The CXCL8/IL-8 levels in each supernatant were measured using the Quantikine human CXCL8/IL-8 ELISA kit according to vendor instructions (R&D Systems, Minneapolis Minn., Cat. No D8000C). The IL-6 levels were measured by ELISA using the Quantikine human IL-6 immunoassay kit (R&D systems, Cat. No. D6050). Data were analyzed by one-way ANOVA followed by Bonferroni's post test and expressed as human IL-8 or human IL-6 fold increase.
# [4] = LPA competition ELISA (C18:0 LPA coat); format: binding; settings: LPC, PA, 14:0 and 18:1 LPA, cPA, PC
# Protocol: The specificity of the humanized antibody was determined by competition ELISA. C18:0 LPA coating material was diluted to 0.33 ug/ml with carbonate buffer (100 mM NaHCO3, 33.6 mM Na2CO3, pH 9.5). Plates were coated with 100 ul/well of coating solution and incubated at 37° C. for 1 hour. The plates were washed 4 times with PBS ([…], pH 7.4) and blocked with 150 ul/well of PBS, 1% BSA, 0.1% tween-20 for 1 h at room temperature. The humanized, anti-LPA antibodies were tested against lipid competitors (14:0 LPA (Avanti, Cat. No 857120), 18:1 LPA (Avanti, Cat. No 857130), 18:1 LPC (Avanti, Cat. No 845875), cLPA (Avanti, Cat. No 857328), 18:1 PA (Avanti, Cat. No 840875), PC (Avanti, Cat. No 850454) at 5 uM, 2.5 uM, 1.25 uM, 0.625 uM, and 0.0 uM. The antibody was diluted to 0.5 ug/ml in PBS, 0.1% tween-20 and combined with the lipid samples at a 1:3 ratio of antibody to sample on a non-binding plate. The plates were washed 4 times with PBS and incubated for 1 hour at room temperature with 100 ul/well of the primary antibody/lipid complex. Next the plates were washed 4 times with PBS and incubated for 1 h at room temperature with 100 […] of HRP-conjugated goat anti-human antibody diluted 1:20,000 in PBS, 1% BSA, 0.1% tween-20. […] The optical density (OD) was measured at 450 nm using a Thermo Multiskan EX. […]
# SKOV3 tumor = test: SKOV3 ovarian tumor progression in nude mice; format: in vivo; settings: with lowering of serum and ascites IL-8, IL-6, GM-CSF
# Protocol: Human mAb LT3015 reduced ovarian tumor SKOV3 progression and circulating cytokines in biological fluids. Nude mice were engrafted with either 10 mg/kg LT3015, vehicle, or 2 mg/kg paclitaxel (Taxol). After 56 days, mice were sacrificed and the peritoneal cavities were analyzed for tumor burden and ascites fluid accumulation. Tumors were harvested and final tumor weights were determined along with ascites volumes. Data were analyzed by ANOVA and student's t-test analysis. […] Serum and ascites levels of IL-6, IL-8, GM-CSF and VEGF were measured using ELISA kits from R&D systems, Minneapolis Minn.
# [5] = Competition ELISA specificity, competitor LPC; format: binding; settings: maximum inhibition, n = 3
# Protocol: as §1
# [6] = 30-240 mg/kg iv daily x 7 vs control
molecule,measurement,setting,value
"LT3000: Murine anti-LPA monoclonal antibody clone B7, IgG1k, renamed Lpathomab, also known as LT3000; hybridoma 504B7.1, ATCC PTA-8420 (antibody, V domains shown) VH: QVQLQQSGAELVRPGTSVKVSCKASGYGFINYLIEWIKQRPGQGLEWIGLINPGSDYTNYNENFKGKATLTADKSSSTAYMHLSSLTSEDSAVYFCARRFGYYGSGNYFDYWGQGTTLTVSS VL: DVVMTQTPLSLPVSLGDQASISCTSGQSLVHINGNTYLHWYLQKPGQSPKLLIYKVSNLFSGVPDRFSGSGSGTDFTLKISRVEAEDLGVYFCSQSTHFPFTFGTGTKLEIK","weights of brains, hearts, lungs, pituitary glands, ovaries, spleens, testes, thymus glands, thyroid or uterus",[1]; 30-240 mg/kg iv daily x 7,No changes were observed
same,"glucose, cholesterol, ALT or other CBC parameters",[1]; [6],no statistically significant reductions
same,hematology parameters,[1]; [6],no significant differences
same,triglycerides,"[1]; female mice, 120 mg/kg iv daily x 7, vehicle 89±17",36±8
same,triglycerides,"[1]; female mice, 240 mg/kg iv daily x 7, vehicle 89±17",46±18
same,liver weights,"[1]; female mice, 240 mg/kg, vehicle 1.2±0.27",0.89±0.26
same,liver weights,"[1]; male mice, 60 mg/kg, vehicle 1.28±0.06",1.03±0.07
same,liver weights,"[1]; male mice, 120 mg/kg, vehicle 1.28±0.06",1.08±0.11
same,triglycerides,"[1]; male mice, 240 mg/kg iv daily x 7, vehicle 133±24",50±8
same,liver weights,"[1]; male mice, 240 mg/kg, vehicle 1.28±0.06",1.11±0.11
same,"MI (%), DSPA",[2],0%
same,neovascularization,neovascularization,inhibited
same,"IL-8 Release, % Inhibition (over LPA taken as 100)","[3]; Lpathomab 300 μg/mL, 1 μM 18:1 LPA, n = 3",20%
same,IL-8 release from ovarian cancer cells,[3]; in vitro,reduced IL-8 release from ovarian cancer cells in a concentration-dependent manner
same,cross-reactivity,[4],no cross-reactivity
same,SKOV3 tumor progression,SKOV3 tumor,significantly reduced
same,"MI (%), LPC",[5],0%
